Experimental data: PMC2766623, “The Vitamin B1 Metabolism of Staphylococcus aureus Is Controlled at Enzymatic and Transcriptional Levels” (PLoS ONE, 2009)
Values belong to the molecule of their own block, whether it stands above or below them.

Key:
[1] = target: S. aureus 5-(2-hydroxyethyl)-4-methylthiazole (THZ) kinase (SaThiM) (Staphylococcus aureus ATCC25923); test: SEC-MALS; Superdex 200 10/30 size exclusion column followed by static light scattering (miniDAWN Tristar); 100 mM Tris-HCl buffer, pH 8, 150 mM NaCl; affinity purified proteins
SaGTPase = target: T1, SaGTPase (Staphylococcus aureus, UniProt P67682); test: phosphate release, malachite green; format: biochemical; conditions: 1 mM substrate, 1 mM MgCl2, 100 mM MOPS pH 7.5, 37°C
T1 construct: gene rsgA; monomer; gtpase-epi-tpk operon
T1 sequence (P67682 1-291): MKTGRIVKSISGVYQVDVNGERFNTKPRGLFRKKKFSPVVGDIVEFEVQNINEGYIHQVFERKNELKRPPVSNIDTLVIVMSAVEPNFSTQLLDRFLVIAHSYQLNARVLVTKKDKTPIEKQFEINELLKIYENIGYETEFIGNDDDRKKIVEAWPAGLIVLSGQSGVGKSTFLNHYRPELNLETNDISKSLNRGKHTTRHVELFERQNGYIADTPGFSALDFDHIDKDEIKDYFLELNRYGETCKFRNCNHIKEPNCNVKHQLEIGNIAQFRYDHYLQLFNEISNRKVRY

[2] = target: S. aureus thiaminase type II (SaTenA) (Staphylococcus aureus ATCC25923); test: SEC-MALS; Superdex 200 10/30 size exclusion column followed by static light scattering (miniDAWN Tristar); 100 mM Tris-HCl buffer, pH 8, 150 mM NaCl; affinity purified proteins
[3] = target: S. aureus 4-amino-5-hydroxymethyl-2-methylpyrimidine (HMP) kinase (SaThiD) (Staphylococcus aureus ATCC25923); test: as above
[4] = substrate: Cc1ncc(C[n+]2csc(CCO)c2C)c(N)n1; test: thiamine hydrolysis, products HMP/THZ measured by radiometric kinase assay, TLC, Lineweaver-Burk; format: biochemical, Staphylococcus aureus; conditions: 100 mM Tris-HCl pH 7.5, 37°C, no nucleophile needed
Source text: thiamine hydrolysis, products HMP/THZ measured by radiometric kinase assay, TLC, Lineweaver-Burk on SaTenA

purified protein [5] = substrate: Cc1ncc(C[n+]2csc(CCO)c2C)c(N)n1; test: purified protein; format: biochemical, Staphylococcus aureus; conditions: 2 mM ATP, 4 mM MnCl2, 100 mM Tris-HCl pH 8.5, 37°C
purified protein [6] = substrate: Cc1ncc(COP(=O)(O)OP(=O)(O)O)c(N)n1; test: purified protein; format: biochemical, Staphylococcus aureus; conditions: co-substrate THZ-[33P] (THZ phosphate), 37°C
[7] = substrate: Cc1ncc(CO)c(N)n1; test: radiometric [gamma-33P]-ATP phosphorylation, TLC, Lineweaver-Burk; format: biochemical, Staphylococcus aureus; conditions: 1 mM ATP, 2 mM MgCl2, 100 mM potassium phosphate pH 7.5, 37°C
Source text: radiometric [gamma-33P]-ATP phosphorylation, TLC, Lineweaver-Burk on SaThiD

stoichiometry N [1]: 2
Molecule: S. aureus 5-(2-hydroxyethyl)-4-methylthiazole (THZ) kinase (SaThiM) (enzyme)

Molecule: Nc1nc2c(ncn2[C@@H]2O[C@H](COP(=O)(O)OP(=O)(O)OP(=O)(O)O)[C@@H](O)[C@H]2O)c(=O)[nH]1 [GTP]
phosphate release, malachite green (SaGTPase): the S. aureus GTPase is not restricted to GTP and exhibits a broad substrate spectrum

stoichiometry N [2]: 3
Molecule: S. aureus thiaminase type II (SaTenA) (enzyme)

stoichiometry N [3]: 2
Molecule: S. aureus 4-amino-5-hydroxymethyl-2-methylpyrimidine (HMP) kinase (SaThiD) (enzyme)

B1: SaTenA (Staphylococcus aureus subsp. aureus NCTC 8325) (protein)
chain: MEFSQKLYQAAKPIINDIYEDDFIQKMLSGDIGADALRHYLKADAAYLKEFTNLYALLIPKMNSMNDVKFLVEQIEFMVEGEVLAHDILAQIVGESYEEIIKTKVWPPSGDHYIKHMYFQAHSRENAIYTIAAMAPCPYIYAELAKRSQSDHKLNREKDTAKWFDFYSTEMDDIINVFEAIMNKLAESMSDKELEQVKQVFLESCIHERRFFNMAMTLEQWEFGGKVND
notes: trimer by SLS
Km [4]: 256 ± 44 µM | kcat [4]: 0.0017 ± 0.00033 s⁻¹

B2: SaTPK (Staphylococcus aureus subsp. aureus NCTC 8325) (protein)
chain: MHINLLCSDRHLPQDIWAKSNEGKWGGVDRGALILLKHQIIPFFSVGDFDSVSKEERQLLTEQLQIKPVQAEKADTDLALAVDKAVALGFDSITIYGATGGRLDHFFGAIQLLLKKAYYKHDVHIEVIDQQNKIELLPKGQHTVEKDKSYPYISFIPMTDDVELSLAGFKYNLARQMLNIGSTLTISNEIESLQAKVTVHDGLILQIRSTDLN
notes: monomer; gtpase-epi-tpk operon
Km (purified protein [5]): 394 ± 74 µM | kcat (purified protein [5]): 0.0083 ± 0.0012 s⁻¹

B3: SaThiE (Staphylococcus aureus subsp. aureus NCTC 8325) (protein)
chain: MFNQSYLNVYFICGTSDVPSHRTIHEVLEAALKAGITLFQFREKGESALKGNDKLVLAKELQHLCHQYDVPFIVNDDVSLAKEINADGIHVGQDDAKVKEIAQYFTDKIIGLSISDLDEYAKSDLTHVDYIGVGPIYPTPSKHDAHIPVGPEMIATFKEMNPQLPIVAIGGINTNNVAPIVEAGANGISVISAISKSENIEKTVNRFKDFFNN
notes: low yield, three bands on SDS-PAGE
Km (purified protein [6]): 145 ± 36 µM

B4: SaThiD (Staphylococcus aureus subsp. aureus N315) (protein)
chain: MIKPKIALTIAGTDPTGGAGVMADLKSFHSCGVYGMGVVTSIVAQNTLGVQHIHNLNHQWVDEQLDSVFNDTLPHAIKTGMIATADTMETIRHYLMQHESIPYVIDPVMLAKSGDSLMDNDTKQNLQHTLLPLADVVTPNLPEAEEITGLTIDSEEKIMQAGRIFINEIGSKGIIIKGGHSNDTDIAKDYLFTNEGVQTFENERFKTKHTHGTGCTFSAVITAELAKGRPLFEAVHKAKKFISMSIQYTPEIGRGRGPVNHFAYLKKEGLDDELSK
notes: dimer; 831 bp ORF in tenA-thiM-thiD-thiE operon
Km [7]: 635 ± 20 µM | kcat [7]: 0.012 ± 0.00083 s⁻¹
